# Measured values taken from the DeepSol protein solubility set.
# Assay: soluble on expression in E. coli; label from the status in PepcDB or PDB records
row,Sequence,soluble on expression in E. coli
1,KPPAESASQTAVAITQSSVKTMAPALQAIVDQSWQLQLSASPEMAYGMGDKSAAGKLQDLSPEALAKLNQGQIAILVQLKALDRSKLSKEDKINAQILEDQLQNEVDLYKYKDYYLPITAESGFHAYISSIAQGRFNTQEDYQNYLDKLKALPNYFAQQTYWLKQGLKEGITPPKATLKGFENSISAYILPVEKSSYFKPFTQYPNHFTEAQKAQLTQQGRALVEQNVIPTYQAFYDFMTQEYMPNTRDNIAANSLPNGDAFYENRVRYYTTLDITSAEVHELGLKEVKRIRQEMEQVIKSVGFKGSFADFLYFLRTDPQFYATSADQLLKEAAFIAKKADATLPKYFGKLPRKPYGIAPVPAEIAPKYTSGRYSGSNRDDEPGYYWVNTYALDKRPLYELEALTLHEAVPGHHLQISLNSELSSQPDFRRYSYISAFGEGWGLYSEYLGLEAGFYQDPYSNFGRLTYEMWRAARLVVDTGMHAQGWSREQAIEFMANNTALSLHNVTTEIDRYITWPGQALSYKIGELTIKRLRAKAEQALGDKFDIRAFHDAVLENGSVPMSVLEQQINDFIEAKKAA,soluble
2,MKHHHHHHQGKITLYEDRGFQGRHYECSSDHTNLQPYLSRCNSARVDSGCWMLYEQPNYSGLQYFLRRGDYADHQQWMGLSDSVRSCRLIPHSGSHRIRLYEREDYRGQMIEFTEDCSCLQDRFRFNEIHSLNVLEGSWVLYELSNYRGRQYLLMPGDYRRYQDWGATNARVGSLRRVIDFS,soluble
3,SASLIQRIARQACLTFRGSSTGSEGPAPGFPENLSLLKSLLTQVRAEDLNIAPRKALPQPLPRNLPPVTYMHIYETEGFSLGVFLLKSGTCIPLHDHPGMHGMLKVLYGTVRISCMDKLDTGAGHRRPPPEQQFEPPLQPLEREAVRPGVLRSRAEYTEASGPCVLTPHRDNLHQIDAVDGPAAFLDILAPPYDPEDGRDCHYYRVVEPIRPKEASGSACDLPREVWLLETPQADDFWCEGEPYPGPKVLP,soluble
4,MATSFPVLCLPNKNIRDVLQNMSTCNLIAFSLCSKATKSHVMHLKNDIQQISIKAFLSIDINILSHNQEVTSLVFFKKDYGRWNFESCESVTATETLTPLEPESDRVWVKRGFKLRDWIDHVMEIFNCSRIHEIYISRIGHEEHYISLSNAVKELKTETIFFSFCSDTVVQSVVANVQSNDISFNLSFNIEPSMQKHKVLTRHFERVSFSKDDTREALTLNDLLITNVSQLNISAHHLSFEELNIFIRHLISGSNRRLKIVGIVCAEATRNMQILLKGISHSVYSAELKIVARNENDYQLGDTIYVYQNCGRRLAMQTYLFEGVEKIVMRVY,not soluble
5,MRYKKTLMLSIMITSFNSFAFNDNYSSTSTVYATSNEATDSRGSEHLRYPYLECIKIGMSRDYLENCVKVSFPTSQDMFYDAYPSTESDGAKTRTKEDFSARLLAGDYDSLQKLYIDFYLAQTTFDWEIPTRDQIETLVNYANEGKLSTALNQEYITGRFLTKENGRYDIVNVGGVPDNTPVKLPAIVSKRGLMGTTSVVNAIPNEIYPHIKVYEGTLSRLKPGGAMIAVLEYDVSELSKHGYTNLWDVQFKVLVGVPHAETGVIYDPVYEETVKPYQPSGNLTGKKLYNVSTNDMHNGYKWSNTMFSNSNYKTQILLTKGDGSGVKLYSKAYSENFK,not soluble
6,MAHHHHHHMQKTILQILREQDDASSSCVLALLKGNASFQCLSKSEGEDILKRDNEDAEKLSDGIRIAIRKGIVSGKPDVSPVNKLNVVGLSAQEVTDKIVAALPSKNGNVIILQGLSGTGKGTTVSKLKDALPKCVTWSNGNIFRSYTYLCNEVLAAQGKEITEESLTDELLSSVEKRVTFVKCEDGMFHTMLDGTRRVADVQNTLLKTPLISSKVPTVAQQTQGEVIRFGAGAVKQLSADGYNVILEGRSQTLDYISSPLRFELIIPDVEVLGQRRAAQRVMAKALEMLDDSASDEEVSKVLVKAVETLQ,soluble
7,EGAALTEKTDIFESGRNGKPNKDGIKSYRIPALLKTDKGTLIAGADERRLHSSDWGDIGMVIRRSEDNGKTWGDRVTITNLRDNPKASDPSIGSPVNIDMVLVQDPETKRIFSIYDMFPEGKGIFGMSSQKEEAYKKIDGKTYQILYREGEKGAYTIRENGTVYTPDGKATDYRVVVDPVKPAYSDKGDLYKGNQLLGNIYFTTNKTSPFRIAKDSYLWMSYSDDDGKTWSAPQDITPMVKADWMKFLGVGPGTGIVLRNGPHKGRILIPVYTTNNVSHLNGSQSSRIIYSDDHGKTWHAGEAVNDNRQVDGQKIHSSTMNNRRAQNTESTVVQLNNGDVKLFMRGLTGDLQVATSKDGGVTWEKDIKRYPQVKDVYVQMSAIHTMHEGKEYIILSNAGGPKRENGMVHLARVEENGELTWLKHNPIQKGEFAYNSLQELGNGEYGILYEHTEKGQNAYTLSFRKFNWDFLSKDLISPTEAKVKRTREMGKGVIGLEFDSEVLV,soluble
8,MDFDMIEEKKDSVIVRNVENFELKDIFDCGQCFRWHRQENGNYIGIAFEKVVEVQKIGEDVVIYNINEEEFKNVWSEYFDLYRDYGEIKKELSRDPLLKKSVDFGEGIRILRQDPFEILLSFIISANNRIPMIKKCINNISEKAGKKLEYKGKIYYAFPTVDKLHEFTEKDFEECTAGFRAKYLKDTVDRIYNGELNLEYIKSLNDNECHEELKKFMGVGPQVADCIMLFSMQKYSAFPVDTWVKKAMMSLYVAPDVSLKKIRDFGREKFGSLSGFAQQYLFYYARENNIQL,soluble
9,SAARRALKAVLVDLNGTLHIEDAAVPGAQEALKRLRATSVMVRFVTNTTKETKKDLLERLKKLEFEISEDEIFTSLTAARNLIEQKQVRPMLLLDDRALPEFTGVQTQDPNAVVIGLAPEHFHYQLLNQAFRLLLDGAPLIAIHKARYYKRKDGLALGPGPFVTALEYATDTKAMVVGKPEKTFFLEALRDADCAPEEAVMIGDDCRDDVDGAQNIGMLGILVKTGKYKAADEEKINPPPYLTCESFPHAVDHILQHLL,soluble
10,MPDLFFVTLYDRQDLLKESMTFLNSEWPRSDGSREHSQKKSCRQSPPMSFLLLNKENDEILGHSRITHLPNRDHALWIESVMIKKDQRGLGLGKFLMKSTEKWMTEKGFNEAYLSTDDQCRFYESLGYEKCDPIVHSTTATCIFPAMNHFQNAAASNPSFLSKIAQPSASSTVSASAPPPPPPPPMAPKMVTRSTSPIVDVNTIDHQYMRKWLKPTE,soluble
11,MSLSTGTMTLHRRLQVEYGLYQDRGRRPTMEDAHTVVSSLPIPQLEEQDEGNTTVSLFAIMDGHCGDSASYYSAAQLASKVSECWPCCMTTSSIVSSLHNAHILMDAQFLEIARSSNILAGCTCLSTVIVTEAHRIRIFTANLGDSRAILCRHGAFSAWLKFSPPSAAAEANANRLNLISFFPGSRLVIPLSLDQKPNISPDRERIEAAGAFTYPSLIKYKDKIAIRGPHRIFPGGLAVPRAIGDLPYKDMTYLNSLGVSAPLVSSDPVISIYDLTEQDEFILQACDGLWDVISSKEAAIFASVMHYIHQLARMPHKAFKKLRRPLKQILFKMGVTSYYSPTSVAVAEALCNHAKLRGSQDNVTVSVIFPEFIKSEGHHHHHH,not soluble
12,MYSGVQIRTGSNPKIRRNKIWGGQNGGILVYNSGLGCIEDNEIFDNAMAGVWIKTDSNPTLRRNKIHDGRDGGICIFNGGRGLLEENDIFRNAQAGVLISTNSHPILRKNRIFDGFAAGIEITNHATATLEGNQIFNNRFGGLFLASGVNVTMKDNKIMNNQDAIEKAVSRGQCLYKISSYTSYPMHDFYRCHTCNTTDRNAICVNCIKKCHQGHDVEFIRHDRFFCDCGAGTLSNPCTLAGEPTHDTDTLYDSAPPIESNTLQHN,soluble
13,MKKATCLTDDQRWQSVLARDPNADGEFVFAVRTTGIFCRPSCRARHALRENVSFYANASEALAAGFRPCKRCQPDKANPRQHRLDKITHACR,soluble
14,GLPDSAFEHDGQLTKRDVRAITLARLAPVPGELLWDVGAGCGSIGIEWMRAHPTCRAMAIEADEGRQQLIEFNRDALGVPGLQLVRGSAPQALSGLERPDAIFIGGGVTRIGVLETCWEQLRSGGRLVANAVTLQSEAALMAWRERHGGELTRIHVAHAQPLGEFDTWRQALPITLLDVVKP,not soluble
15,MSQATKRKHVVKEVLGEHIVPSNQQQIVRVLRTPGNNLHEVETAQGQRFLVSMPSKYRKNIWIKRGDFLIVDPIEEGEKVKAEISFVLCKDHVRSLQKEGFWPEAFSEVAEKHNNRNRQTQPELPAEPQLSGEESSSEDDSDLFVNTNRRQYHESEEESEEEEAA,soluble
16,VVPAQHRPPDRPGDPAHDPGRGRRLGIDVGAARIGVACSDPDAILATPVETVRRDRSGKHLRRLAALAAELEAVEVIVGLPRTLADRIGRSAQDAIELAEALARRVSPTPVRLADERLTTVSAQRSLRQAGVRASEQRAVIDQAAAVAILQSWLDERLAAMAGTQEGSDA,not soluble
17,GMEVNRLSALTPPMGWNSWDCYGASVTEEEVLGNAEYMANHLKKYGWEYIVVDIQWYEPTANSSAYNPFAPLCMDEYGRLLPATNRFPSAKNGAGFKPLSDAIHDLGLKFGIHIMRGIPRQAVYENSPVLGSTKTAREIAHTNSICPWNTDMYGVDPTKEGAQSYYNSLFELYAQWGVDFVKVDDIAASRLYDTHLEEIKMIQRAIQACGRPMVLSLSPGPAPIKYAHHFKTNANMWRITDDFWDDWSLLYQMFERCEVWEKHIGTGHWPDCGMLPLGHIGIRSVDGPGGDRWTRFTKDEQLTMMNLWAICHSPLMFGGELRDNDEWTLSLLTNEGILSINQKSVLNRFVYREEDKVAWAANGRNGEAYVALFNLHDQQKTLQFRLDMVGIMETVQLFNVWDRSFLQSLAPSESFQIELKPHQSMMLKLSPDR,soluble
18,MSLEMLGIDVVIPDISYLIERADRVKAIFLTHGHDENIGGVFYLLNKLSVPVYGTKLTLALLREKLKQYGHNRKTDLREIHSKSVITFQSTKVSFFRTIHSIPDSVGVSFKTSLGSIVSAGDFKFDQTPALNQTCDIGEIAKIGNSGVLALLSDSANVERPGYTPSEAAVSGEISDALYNSQNRVIIAVFASNINRIQQVIHAAAQNGRKIAVAGKNLQSVLQLARKLGYIEADDELFISVQDVKKYPKREVAIITAGSQGEPLAALTRMANKAHKQLNIEEGDTVVIASTPIPGQELIYSKTVDLLARAGAQVIFAQKRVHVSGHGSQEELKLMINLLKPKYLIPVNGEYRMQKAHSKIAEETGMKRSDIFLIEKGDVVEFRGQNVKIGDKVPYGNILIDGLGVGDIGNIVLRDRRLLSQDGILEGHHHHHH,not soluble
19,KILDACCGSRMFWFDKQNDQVLFMDNRKHYEKLESGHIVAVNPNIVADFRKMPFDDNSFYHVVFDPPHLLRAGSNSWLAKKYGKLNEQTWKEDIQKGFSECMRVLKPNGTLVFKWNEDQIKLSEILSIIDYEPLYGNKRAKTHWLVFMKESEENESNG,soluble
20,MKQTPPLISFITICYNGLDDTCMLIESLRDTISSVSYEIIVVDNASRQDEASLIQERYPFVRTLRSEKNLGFSGGNNLGIQIAQGKYLFLINNDTYLTEDGLPALIERLESDPRIGAVSPKIRFAFPPQSIQFAGYTKLSRYTMRNKALGMGCPDDGTFDTPRPSAYLHGAALMLKREVIWKAGLMPEIYFLYYEELDWCTSMTRAGYQLWYEPRCTIFHKESQSTGRQSPLRTFYMMRNRMLYAWRNLPGMERCLAIAYQMLIVAPKDSLCFVLKGEPKLAKAVWHGVKGFWKLC,not soluble
21,MPYDFYTDGSALGNGQQGSRGGYGVHVPSDTSKNVSGSYPHGPQTNNRYELEAIKHATQMARDVPDSHVRIHTDSKNAKDSVTKWNDNWKSNGYKTSSGQDVKNQDLIRDIDRNVQALKHSGKTVEFEHVRGHSNRMYI,not soluble
